Laboratory results as given in PMC7802198, “A novel humanized Frizzled-7-targeting antibody enhances antitumor effects of Bevacizumab against triple-negative breast cancer via blocking Wnt/β-catenin signaling pathway” (Journal of Experimental & Clinical Cancer Research : CR, 2021).

What was measured:
Assay in all cases: BLI; Fortebio Octet Red96; SHH002-hu1 captured on Anti-Human Fab-CH1 2nd Generation Sensor; rhFzd1/2/5/7/8 in solution at different concentrations (rhFzd7: 6.25, 25, 100, 400 nmol/L); KB buffer (0.1% BSA + 0.05% Tween 20 in PBS, pH 7.2); KD from kd/ka
Settings in all cases: both partners purified
rhFzd7 = target: T1, rhFzd7 (Homo sapiens, UniProt O75084)
T1 construct: Frizzled-7, human, recombinant; the discussion says only that the recombinant human Fzd7 extracellular CRD protein was used to immunize mice; also called recombinant human Frizzled-7

rhFzd8 = target: T2, rhFzd8 (Homo sapiens, UniProt Q9H461)
T2 construct: Frizzled-8, human, recombinant
T2 sequence (Q9H461 28-694): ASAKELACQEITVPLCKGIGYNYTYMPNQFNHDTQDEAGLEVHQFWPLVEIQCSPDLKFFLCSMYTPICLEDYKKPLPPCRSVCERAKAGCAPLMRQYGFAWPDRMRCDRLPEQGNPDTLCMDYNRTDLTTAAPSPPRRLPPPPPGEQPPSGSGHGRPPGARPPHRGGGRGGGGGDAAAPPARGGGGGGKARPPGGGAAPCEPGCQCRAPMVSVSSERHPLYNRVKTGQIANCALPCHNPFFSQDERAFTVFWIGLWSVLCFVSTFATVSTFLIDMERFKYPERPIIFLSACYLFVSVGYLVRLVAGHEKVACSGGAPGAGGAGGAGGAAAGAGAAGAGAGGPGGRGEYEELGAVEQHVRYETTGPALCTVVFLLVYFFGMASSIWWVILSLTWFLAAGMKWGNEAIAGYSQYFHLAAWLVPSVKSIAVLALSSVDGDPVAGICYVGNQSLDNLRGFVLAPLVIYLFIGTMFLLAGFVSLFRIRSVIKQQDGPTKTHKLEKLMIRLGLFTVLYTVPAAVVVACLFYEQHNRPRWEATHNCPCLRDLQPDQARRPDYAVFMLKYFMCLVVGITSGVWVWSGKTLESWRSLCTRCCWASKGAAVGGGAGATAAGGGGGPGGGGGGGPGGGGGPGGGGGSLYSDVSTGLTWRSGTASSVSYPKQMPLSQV

rhFzd2 = target: T3, rhFzd2 (Homo sapiens, UniProt Q14332)
T3 construct: Frizzled-2, human, recombinant
T3 sequence (Q14332 24-565): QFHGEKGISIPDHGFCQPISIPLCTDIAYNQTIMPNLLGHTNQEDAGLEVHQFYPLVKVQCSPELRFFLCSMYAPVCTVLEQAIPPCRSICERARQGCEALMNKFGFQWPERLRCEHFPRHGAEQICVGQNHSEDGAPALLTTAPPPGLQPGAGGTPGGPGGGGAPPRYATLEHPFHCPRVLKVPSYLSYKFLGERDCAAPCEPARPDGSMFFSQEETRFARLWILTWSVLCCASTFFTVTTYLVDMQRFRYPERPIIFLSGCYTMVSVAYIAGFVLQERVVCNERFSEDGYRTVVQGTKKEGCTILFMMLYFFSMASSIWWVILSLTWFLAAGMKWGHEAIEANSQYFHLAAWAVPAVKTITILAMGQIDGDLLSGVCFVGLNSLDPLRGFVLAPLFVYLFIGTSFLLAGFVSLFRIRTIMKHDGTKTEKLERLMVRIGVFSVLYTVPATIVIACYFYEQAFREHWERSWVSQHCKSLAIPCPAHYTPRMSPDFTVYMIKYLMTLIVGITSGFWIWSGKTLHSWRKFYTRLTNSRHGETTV

rhFzd5 = target: T4, rhFzd5 (Homo sapiens, UniProt Q13467)
T4 construct: Frizzled-5, human, recombinant
T4 sequence (Q13467 27-585): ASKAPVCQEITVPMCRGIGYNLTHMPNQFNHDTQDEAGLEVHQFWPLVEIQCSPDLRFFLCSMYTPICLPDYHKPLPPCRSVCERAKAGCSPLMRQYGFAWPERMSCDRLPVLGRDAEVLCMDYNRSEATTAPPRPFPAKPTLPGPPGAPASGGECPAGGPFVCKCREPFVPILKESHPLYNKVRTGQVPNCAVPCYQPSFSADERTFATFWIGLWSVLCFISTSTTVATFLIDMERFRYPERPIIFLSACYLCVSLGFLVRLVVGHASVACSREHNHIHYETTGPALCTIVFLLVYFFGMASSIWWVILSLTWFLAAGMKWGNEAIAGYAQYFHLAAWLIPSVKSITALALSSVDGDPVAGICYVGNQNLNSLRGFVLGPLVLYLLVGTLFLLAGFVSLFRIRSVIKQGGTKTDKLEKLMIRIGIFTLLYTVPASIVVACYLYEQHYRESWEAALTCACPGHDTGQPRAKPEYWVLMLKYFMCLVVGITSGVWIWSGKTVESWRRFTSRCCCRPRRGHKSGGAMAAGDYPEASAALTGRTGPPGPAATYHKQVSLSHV

rhFzd1 = target: T5, rhFzd1 (Homo sapiens, UniProt Q9UP38)
T5 construct: Frizzled-1, human, recombinant
T5 sequence (Q9UP38 70-647): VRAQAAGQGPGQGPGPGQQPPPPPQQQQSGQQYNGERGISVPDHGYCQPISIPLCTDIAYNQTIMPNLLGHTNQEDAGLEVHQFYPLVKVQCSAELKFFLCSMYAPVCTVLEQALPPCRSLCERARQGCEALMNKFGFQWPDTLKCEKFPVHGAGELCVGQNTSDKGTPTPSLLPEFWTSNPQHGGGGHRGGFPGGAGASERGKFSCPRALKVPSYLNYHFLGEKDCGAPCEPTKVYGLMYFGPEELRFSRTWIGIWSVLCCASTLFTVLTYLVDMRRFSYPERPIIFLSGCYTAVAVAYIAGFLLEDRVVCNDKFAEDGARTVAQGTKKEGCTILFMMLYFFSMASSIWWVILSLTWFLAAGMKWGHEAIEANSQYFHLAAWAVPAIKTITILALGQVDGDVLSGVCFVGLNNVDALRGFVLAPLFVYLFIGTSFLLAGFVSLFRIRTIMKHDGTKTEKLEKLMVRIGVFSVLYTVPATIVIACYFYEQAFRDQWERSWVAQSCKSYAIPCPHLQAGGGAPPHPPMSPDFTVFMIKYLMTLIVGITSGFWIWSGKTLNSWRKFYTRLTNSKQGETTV

B1: SHH002-hu1 (antibody, V domains shown)
VH: QVQLVQSGAEVKKPGASVKMSCKASGYTFTTYTMHWVRQAPGQGLEWIGYINPRSGYTNYNQKFQGRATVTADKSTSTAYMELSSLRSEDTAVYYCARRGYFDYWGQGTTVTVSS
VL: DIQLTQSPSSLSVSVGDRATITCRASESVDDYGNTFMHWYQQKPGKAPKLLIYLASNLQSGVPSRFSGSGSRTDFTLTISSVQAEDAATYYCQQNNEDPYTFGQGTKLEIK
notes: Whole antibody of 150 kDa (HC 50 kDa, LC 25 kDa); humanization degree 98%; detected with anti-human IgG H&L; also called humanized antibody targeting Fzd7; humanized anti-Fzd7 antibody
For B1, the Kd (rhFzd7) was less than 1 pM, the koff (rhFzd7) was less than 1e-07 s⁻¹ and the kon (rhFzd7) was 400000 M⁻¹ s⁻¹. B1: no binding (rhFzd8); no binding (rhFzd2); no binding (rhFzd5). B1: no binding (rhFzd1).
